Test results published in patent US20230265170A1.

Assays:
Assay in all cases: cell-based or functional assay
[1] = biological target: SARS-CoV-2 Omicron BA.1 spike (S) protein (SARS-CoV-2)
[2] = biological target: SARS-CoV-2 Omicron BA.3 spike (S) protein (SARS-CoV-2)
[3] = biological target: SARS-CoV-2 Omicron BA.2 spike (S) protein (SARS-CoV-2)

AZD8895 (antibody), sequence (VH): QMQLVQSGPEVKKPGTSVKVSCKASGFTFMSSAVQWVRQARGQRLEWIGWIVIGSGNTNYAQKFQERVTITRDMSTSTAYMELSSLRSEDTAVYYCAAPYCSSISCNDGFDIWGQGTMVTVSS
AZD8895 (antibody), sequence (VL): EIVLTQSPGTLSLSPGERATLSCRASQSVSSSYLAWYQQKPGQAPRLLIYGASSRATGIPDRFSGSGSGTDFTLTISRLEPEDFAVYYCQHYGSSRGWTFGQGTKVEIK

Substance	IC50, pseudoviral neutralization [1] [µg/mL]	IC50, pseudoviral neutralization [2] [µg/mL]	IC50, pseudoviral neutralization [3] [µg/mL]
ADG10 (antibody)	> 10	> 10	> 10
ADG20 (antibody)	0.348	> 10	> 10
ADG30 (antibody)	> 10	> 10	> 10
AZD1061 (antibody)	0.308	0.019	0.008
AZD8895 (antibody)	0.246	> 10	1.33
Ly-CoV16 (antibody)	> 10	> 10	> 10
Ly-CoV555 (antibody)	> 10	> 10	> 10
Ly-CoV1404 (antibody)	0.002	0.002	0.001
REGN10933 (antibody)	> 10	> 10	> 10
REGN10987 (antibody)	> 10	> 10	0.516
S309 (antibody)	0.313	0.311	0.638
